Results taken from the DeepSol protein solubility set.

Test: soluble on expression in E. coli; label from the status in PepcDB or PDB records

Sequence | soluble on expression in E. coli
MKVELTAIEARVIGCLIEKEVTTPDQYPLSLNALTNASNQKSNREPVMALSESDVLDAVDALIERRLVSDESAFNSRVSKYQHRFCNTEFGDLKLSEQEKGIICCMLLRGAQTPGEIRTRTNRLATFHDVKEVEAVLEHLASEEKGPLVVKLPREAGKRESRYMHLFCGEVDVSAMAAAVPATSSSSVRIAQLEQEVAELREELDALKAQVESLLS | not soluble
MKVGIIMGSVRAKRVCPEIAAYVKRTIENSEELIDQKLKIQVVDLQQIALPLYEDDDELIPAQIKSVDEYADSKTRSWSRIVNALDIIVFVTPQYNWGYPAALKNAIDRLYHEWHGKPALVVSYGGHGGSKCNDQLQEVLHGLKMNVIGGVAVKIPVGTIPLPEDIVPQLSVHNEEILQLLASCIETTRNK | soluble
MKVKCEECGETYTLNDGEDPDDYICECGGKLKRETFLRRTALGVGVFSIP | not soluble
MKVKEAMNPEIITVSPETRPLEAFEKMYKHGVRRLFVLEDDGKPVGVVSYTDLIGVLGTIKPDSEHPERDLKVRDIMVDEVITISADDNIEDAANLMLRADISGLLVMDDERPVGVITKTDICRLVAAEILVPS | not soluble
MKWTVQQLRRFQHKEMAIDETVDVSDLKQIDTLIRDISPVHVQGKADVGSTKFTFHLTLSGTMVLPCSRTLVDVAYPFSIQTTETFFADGSGIVETDEDTHMVAGDTIDLNPIIRELILLEIPLQLIAEGPVAGGAPQHGEGWDVLSEEEWEKAMQEREKKVDPRLAGLAKFFEEKREE | not soluble
MKYGYFDNDNREYVITRPDVPAPWTNYLGTEKFCTVISHNAGGYSFYNSPEYNRVTKFRPNATFDRPGHYVYLRDDDSGDYWSISWQPVAKSLDEAQYQIRHGLSYSKFQCDYNGIHARKTLFVPKGEDAEIWDVVIKNTSDQVRTISAFSFVEFSFSHIQSDNQNHQMSLYSAGTAYRPGLIEYDLYYNTDDFEGFYYLASTFDPDSYDGQRDRFLGLYRDEANPLAVEQGRCSNSAQTCYNHCGSLHKQFTLQPGEEIRFAYILGIGKGNGERLREHYQDVANIDAAFAAIKAHWDERCAKFQVKSPNQGLDTMINAWTLYQAETCVVWSRFASFIEVGGRTGLGYRDTAQDAISVPHANPEMTRKRIVDLLRGQVKAGYGLHLFDPDWFDPEKEDVAPSKSPTVVPTPSDEDKIHGIKDTCSDDHLWLIPTICKYVMETGETSFFDQMIPYADGGEASVYEHMKAALDFSAEYVGQTGICKGLRADWNDCLNLGGGESSMVSFLHFWALQEFIDLAKFLGKDQDVNTYTEMAANVREACETHLWDDEGGWYIRGLTKNGDKIGTAQQQEGRVHLESNTLAVLSGLASQERGEQAMDAVDEHLFSPYGLHLNAPSFSTPNDDIGFVTRVYQGVKENGAIFSHPNPWAWVAETKLGRGDRAMKFYDALNPYNQNDIIEKRIAEPYSYVQFIMGRDHQDHGRANHPWLTGTSGWAYFAVTNYILGVQSGFTGLSVDPCIPSDWPGFEVTRQWRGATYHIQVENPDHVSKGVKSITLNGAPIQGRIPPQAQGSDNQVVVVLGHHHHHH | soluble
MKYIEPHFISFTQHTLKSQLIPKSFHGMKILQFSDLHLGYYFSLQHLSQVVSKINAVNPDIVLFTGDLIDNYQTYTDTPFVASILKNIQAPFGKFAIYGNHDHGGYGTEYYEHIMRESGFELLLNSKKRIRLMDNSEISIFGLDDILLGKPKIEKTLQHARQNTYNIVLVHEPDIAPQISKYPINLQLSGHSHGGQVQIPFLGAIITPSLAKDYIEGFYTMQDLTLYVNRGLGRTRVPFRFMSKPEITIFTLQHSLEHHHHHH | not soluble
MKYPFYYCCDNLDIKSISVIGDFNNWDGGKNILKRHDDGTWMTEIELSPGKYRYKFLINDSILFNDPNALIYTYDDKGGTASFIIIDESNKRIINTKPASLNIESYSFLSVDKELSYCENGERKCYKDKHSSIMLKIGFSDITGLHTVNAIWYAPNNEIHEIQESVLNDGEKNENRKNEALFQININDDTIAGEWKLQIFINGSLALEDSFTVELKQPEVLDKTALDDAAMLSADLEVPDFLIEEDMQNEFEAPEFEVESNLQTNAEKEEISEEDLLGLFDDIKEIDMPEKDTSGNQKTPAPDETEMPADGNIMNLFDEIRISELKDEKAQDTENNTESTSKEAEESDSAIDELLELREFIDSSQNSEKDSIESSGGKSGEEANEEDISDIFIDIKNRTD | not soluble
MKYQKLENQEANWKWIYLIRKHREGENITRYEERSLQEAKAQELLESQNYPEKIEEWIKNHLSPALPIKLDQAIRARRKRFFNGEKQHTKKKSIDLEYAVWLRLSKYSRKMKMTLSETITYMIDERESKAQFENQMAAMKTSLKNLLK | not soluble
MLAAAHKAGGTFAAESILILRNRLSGVADILADFPDDVPVYVAEAPVLDGIVGFHLHRGILALGRRVRDDGLEQMTAALPASSLVLVGCGISNHDNLGAMFRNAAAFYADAVLLDETCCDPLYRKALRVSVGSVLSVPYHRGGGAVEMLERLSEEGFAIWGLSPDGKTEIRDIPRSERMALVIGTEGEGLPQSVLSRFQTARIAQSPQVDSLNAGTASGLALYQMAGVMGRV | not soluble
MLAAFQQQQTRKFSPITNTSASCLNMQPNPPKISIAPSVISVIGVHMEKHKLKIKTGQNIVLSASILPIQATNKELIWSNMNSDIITIYPKGDTVTITGKSAGKAVVIVTTAEGKFRDLCVIHVQPYMTNPK | not soluble
MLAAGEGKRMGACKPLLPLGASTVLAHVAKTLLPAINGPLVVVTGHHGDAVTAEALRLSLETAENTTPQDGMFSSVRTGIAHIVGRVDGVLVLPADIPFVRTATCALVVEAFRRHRAAVTYPTLCGERGHPPLLDADTMRAVLASSGDGGLRGVLLALERQGGTTHDVAVADEGIVTDMDTPADHAQLVARHPLRHIPTPREREALLEMAGTPARVRAHCRMVARAALAMAAHLEATRRGFISPFARQSAPHGISTSGAHAEPRSVPASTTTHAVHAEGNTTLPHTATAHVACPPPDVTTGPMPTCQPGHMPDHMPGTARDAAQQAPAATASPQRLDRPLIHAAATLHDICKGTQRHEAAGGALLTRHGFPEVGSIIAAHRDIAPQAGPEIDEAALVMLADKYVRGVSLIPVEERFDERLREWAHRPDVACDIAARKARVLMVRDLFESETATELFPLLQRKVRRGTFLEHHHHHH | not soluble
MLAERGANITGLDISGPMLQQGREKAQATGVDDRVEFMRGDAARLPFPDDHFDTVFAMRFFHLADTPAAFLAEMRRVSKEQVFFDTFNRFSTRSIYNWALPMGSRLYSRWEIDRLLDGAGLELTDANHDWLLPYGFYRKIPNELAASFRSLDTALGGTPLGEKLASVSYWNTHVLEHHHHHH | not soluble
MLALPAEFEQFHWMVDMVQNVDMGLIVINRDYNVQVWNGFMTHHSGKQAHDVIGKSLFEIFPEIPVEWFKLKTKPVYDLGCRSFITWQQRPYLFHCRNVRPVTQQAKFMYQNVTLNPMRTPTGAINSLFLSIQDATSEALVSQQASSQ | not soluble
MLAQRGTFAECGAEVLAVAMSPGRRHITKPVCEITFGLRESNVLTSTMVLNAGAGVPHDAPASGGTLFGLTDKEVEQMSNFKLLVIHLGGVKNHLIYKARLILRNVNKPCIIICESPVDCEDFAKIGVKTSKVMPSEEDVKTEGHIVDIVSGVIRGETISQEKLDEIIRKVKLALGDALEHHHHHH | soluble
MLCASAEVEVFYDTDNNRKSDPAVFWQNPLNRSKFPLLSQIANRYLTTPASSAESERVFSGAGRVSTKLRRKMSTKSLSKSVFLQQNQKVLGFKIGLD | not soluble
MLCFFDPGNFDIGDSVNDVEVKFNRAWTSVIGTKIDFAEKYSINIEGYYKYVFDRGYITADTSTGTITPSFNFDGVGKVWGFDIQLQKLESRYWDGWISYTYTWAKYNDPSGGNNGISNGSTNTINDSWYYPSFHRFHNFNLVLNIKPLLWFNIALRFGFASGQPRRRIDNKIYPYPVLIVNEDNEMVILQKYRRNSWYDENERTPWSFPLDIKFSFFPVNKNGRTSMEIYAAGENMMSLFYSPPGRTTFNQYTGKEDQGSSSGSFDLPIPMVSFGIKWRY | not soluble
MLCHTLISSFNNHIWRFLIMENKMNDNRVPRERVAILIDSGCDVTEELIRQYNMKLLRLHVIYPEKDYSDDLDISPQTVYERFPGEIPHTSTPSPQEVKDMADELKREGYTHVLAFAISSGLSGTYNTMCSVLNEEEELTSFVLDTRNISFGSGVLAVWAAQKLEEGMPYEELVRLLPGKVQDSKILYYMDTLTYLQKGGRIGLVTSIVGNILNLKPIISCNCEGVYYTVAKIRGSKQGMTKLLAEAKDFAGDGPVWFSLLNGNAAAASNEMLKRITEALPEGKHLLSKQIAASLAVHTGPGLLGIGILKNP | not soluble
MLDLQISKKTVDPLKRPPHSVEAEQSIIGGLMLDNQVWDKVSNKLCETDFYRTEHRILFRAISALAKKDQPFDVVTLLDALKTRNELDDAGGEAYLFELANNTPSVANVTAYADIVREKSVQRQLIAVATEIADSAYNPAGREVPELLDMAETKVFAIGEQTASDGGPENIKSILVRAVEKIDALYHNGDAITGLATGLSDLDEMTSGLQPSDLIIVAGRPSMGKTTLVMNMAEHAAIKAGKPVLVFSMEMPADSLAMRMMSSLGRIDQHRIRTGKLDDNDWPRVTSAVHMLSEAPLFIDDTPALSPGEMRARARRLAKEHGSLGLIVVDYLQLMKVPGFNADNRTAEISEISRSLKSLAKELQVPVIALSQLNRSLEQRADKRPVMSDLRESGAIEQDADLICFIYRDEVYNEDSPDKGTAEIIVAKQRNGPIGKVRVAFLGKYTRFEDLAFNGYQGVE | not soluble
MLDMNPQETYTAPEEVNTPSRPIDENALLQRHQVMVKRVVNQLRVHATSHCSIEDMQQIGLIALVEAGRRYGDIDDTHFPAFAVCRVRGAILDELRRLDWRSRKTRQQAHELNDVTRDLTRSLGRMPTDSEIIKALGTDEQDYYNRQNAALAGEMQSLDQLMENSTDSHFGGQYDGMEHEHIRRSLDSALGRLSKRDQLLLTLFYQHELNLHEIALVLDLTPPRICQLHKQALKQLNQLMSS | not soluble
MLDNRPIGVFDSGIGGLTIVKNLMSILPNEDIIYFGDIARIPYGTKSRATIQKFAAQTAKFLIDQEVKAIIIACNTISAIAKDIVQEIAKAIPVIDVITAGVSLVDNLNTVGVIATPATINSNAYALQIHKKNPNIEVYSNPCGLFVSMIEEGFVSGHIVELVAKEYLSYFHDKNIQALILGCTHYPIIKESIAKILDVKLIDPSLQASKMLYSLLFENKLLNTTKSNPEYRFYVTDIPLKFRSVGEMFLQTEMQHLEIVSLDSY | not soluble
MLDSVTHSTFLPNASFCDPLMPWTDLFSNEDYYPAFEHQTACDSYWTSVHPEYWTKRHVWEWLQFCCDQYKLDANCISFCHFNISGLQLCSMTQEEFIEAAGICGEYLYFILQNIRSQGYSFFNDAEETKTGIKDYADSSCLKTSGIKSQDCHSRTSLQSSHLWEFVRDLLLSPEENCGILEWEDREQGIFRVVKSEALAKMWGQRKKNDRMTYEKLSRALRYYYKTGILERVDRRLVYKFGKNAHGWQEEKL | soluble
MLDTDTITFVNCMHEYICEMDSYPKMNTEIINFESDALRDNYLGDEFRRQILVYTPDSMTDSYPLMIELAGTNWKPRLHNKFANIVEKLFSQGLKAVIANPNFSTKYNINQYINSPAVGNYEDFIITEIVPYLRERYRTGKTALFGKSSGGFGSYTLAVRHPEVINGFADHFGDSCFFYLYADDFAYTYNMLQKYKKSELIEHLLSKRPTDEEMRALNVFGSSAFYSPDLNDPSGFDLPFDENTGEIKENVWSRWKQLDPVKNVKQNLDALKKLDAVYLDVGDSDEYRLYIGSRSLHNKLLEGGIEHHYEEFHGGHFGNSERYLVSLPYLYDALRVKE | not soluble
MLDVKSQDISIPEAVVVLCTAPDEATAQDLAAKVLAEKLAACATLLPGATSLYYWEGKLEQEYEVQMILKTTVSHQQALIDCLKSHHPYQTPELLVLPVTHGDTDYLSWLNASLR | not soluble
